Data taken from paper doi:10.1101/2023.12.12.571160.

Experiments:
[1] = molecular target: prefusion-stabilized PRD-0038 S2 subunit trimer (PRD-0038 (clade 3 sarbecovirus)); assay: negative-stain EM
[2] = molecular target: prefusion-stabilized SARS-CoV-1 S2 subunit trimer (SARS-CoV-1); assay: negative-stain EM

| Substance | stoichiometry N [1] | stoichiometry N [2] |
| --- | --- | --- |
| prefusion-stabilized PRD-0038 S2 subunit trimer (domain or fragment) | 3 | – |
| prefusion-stabilized SARS-CoV-1 S2 subunit trimer (domain or fragment) | – | 3 |
